Reference: patent US20130316941A1 (Boehringer Ingelheim, published 2013)
Starred links: 1 amine or outer side, 2 acyl side, 3 side chain; linkers in the order of their positions; H or OH if unused. Non-standard residues stand in square brackets, D forms with d. Groups on a side chain read outwards from the residue. *: point of attachment. γGlu = O=C(O)[C@H](CCC(=O)[*:2])N[*:1]; Palmitoyl = CCCCCCCCCCCCCCCC(=O)*

B1: H-H-Aib-QGTFTSDYSRYLDE-K(Hexadecanoyl-isoGlu)-RARDFIEWLLSA-NH2 [Compound 9] (peptide)
peptide: HXQGTFTSDYSRYLDEKRARDFIEWLLSA
HELM: PEPTIDE1{H.[Aib].Q.G.T.F.T.S.D.Y.S.R.Y.L.D.E.K.R.A.R.D.F.I.E.W.L.L.S.A.[am]}|PEPTIDE2{[CCCCCCCCCCCCCCCC(=O)[*:2]].[gGlu]}$PEPTIDE1,PEPTIDE2,17:R3-2:R2$$$V2.0
SMILES: CCCCCCCCCCCCCCCC(=O)N[C@@H](CCC(=O)NCCCC[C@H](NC(=O)[C@H](CCC(=O)O)NC(=O)[C@H](CC(=O)O)NC(=O)[C@H](CC(C)C)NC(=O)[C@H](Cc1ccc(O)cc1)NC(=O)[C@H](CCCNC(=N)N)NC(=O)[C@H](CO)NC(=O)[C@H](Cc1ccc(O)cc1)NC(=O)[C@H](CC(=O)O)NC(=O)[C@H](CO)NC(=O)[C@@H](NC(=O)[C@H](Cc1ccccc1)NC(=O)[C@@H](NC(=O)CNC(=O)[C@H](CCC(N)=O)NC(=O)C(C)(C)NC(=O)[C@@H](N)Cc1c[nH]cn1)[C@@H](C)O)[C@@H](C)O)C(=O)N[C@@H](CCCNC(=N)N)C(=O)N[C@@H](C)C(=O)N[C@@H](CCCNC(=N)N)C(=O)N[C@@H](CC(=O)O)C(=O)N[C@@H](Cc1ccccc1)C(=O)N[C@H](C(=O)N[C@@H](CCC(=O)O)C(=O)N[C@@H](Cc1c[nH]c2ccccc12)C(=O)N[C@@H](CC(C)C)C(=O)N[C@@H](CC(C)C)C(=O)N[C@@H](CO)C(=O)N[C@@H](C)C(N)=O)[C@@H](C)CC)C(=O)O
B2: H-H-Aib-QGTFTSDYSKYLD-K(Hexadecanoyl-isoGlu)-RRAKDFIEWLLSA-NH2 [Compound 1] (peptide)
peptide: HXQGTFTSDYSKYLDKRRAKDFIEWLLSA
HELM: PEPTIDE1{H.[Aib].Q.G.T.F.T.S.D.Y.S.K.Y.L.D.K.R.R.A.K.D.F.I.E.W.L.L.S.A.[am]}|PEPTIDE2{[CCCCCCCCCCCCCCCC(=O)[*:2]].[gGlu]}$PEPTIDE1,PEPTIDE2,16:R3-2:R2$$$V2.0
SMILES: CCCCCCCCCCCCCCCC(=O)N[C@@H](CCC(=O)NCCCC[C@H](NC(=O)[C@H](CC(=O)O)NC(=O)[C@H](CC(C)C)NC(=O)[C@H](Cc1ccc(O)cc1)NC(=O)[C@H](CCCCN)NC(=O)[C@H](CO)NC(=O)[C@H](Cc1ccc(O)cc1)NC(=O)[C@H](CC(=O)O)NC(=O)[C@H](CO)NC(=O)[C@@H](NC(=O)[C@H](Cc1ccccc1)NC(=O)[C@@H](NC(=O)CNC(=O)[C@H](CCC(N)=O)NC(=O)C(C)(C)NC(=O)[C@@H](N)Cc1c[nH]cn1)[C@@H](C)O)[C@@H](C)O)C(=O)N[C@@H](CCCNC(=N)N)C(=O)N[C@@H](CCCNC(=N)N)C(=O)N[C@@H](C)C(=O)N[C@@H](CCCCN)C(=O)N[C@@H](CC(=O)O)C(=O)N[C@@H](Cc1ccccc1)C(=O)N[C@H](C(=O)N[C@@H](CCC(=O)O)C(=O)N[C@@H](Cc1c[nH]c2ccccc12)C(=O)N[C@@H](CC(C)C)C(=O)N[C@@H](CC(C)C)C(=O)N[C@@H](CO)C(=O)N[C@@H](C)C(N)=O)[C@@H](C)CC)C(=O)O

Experiments:
[1] = target: human glucagon receptor (Glucagon-R) (human, UniProt P47871 26-477); experiment: cell-based or functional assay
[2] = target: human glucagon-like peptide 1 receptor (GLP-1R) (human, UniProt P43220 24-463); experiment: cell-based or functional assay

human glucagon receptor (Glucagon-R), sequence (P47871 26-477): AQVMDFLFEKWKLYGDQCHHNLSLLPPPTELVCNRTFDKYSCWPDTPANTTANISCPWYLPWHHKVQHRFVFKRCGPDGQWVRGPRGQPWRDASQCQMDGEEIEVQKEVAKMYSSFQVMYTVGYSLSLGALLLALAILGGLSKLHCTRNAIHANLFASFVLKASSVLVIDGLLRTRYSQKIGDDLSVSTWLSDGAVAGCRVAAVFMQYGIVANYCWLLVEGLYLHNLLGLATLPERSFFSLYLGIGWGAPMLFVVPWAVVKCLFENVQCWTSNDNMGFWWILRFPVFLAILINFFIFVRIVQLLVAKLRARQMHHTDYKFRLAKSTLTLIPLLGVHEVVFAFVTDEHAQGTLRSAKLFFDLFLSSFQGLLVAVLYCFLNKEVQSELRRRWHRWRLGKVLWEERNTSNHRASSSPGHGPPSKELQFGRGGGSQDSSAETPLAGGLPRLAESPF

| Binder | EC50 values for cAMP generation in HEK293 cells expressing Glucagon receptor [1] [nM] | EC50 values for cAMP generation in HEK293 cells expressing GLP-1 receptor [2] [nM] |
| --- | --- | --- |
| B1 | 0.1 | 0.05 |
| B2 | 0.15 | 0.12 |
| H-H[dS]QGTFTSDYSRYLDEK([γGlu-Palmitoyl])RARDFIEWLLSA-NH2 [H-H-DSer-QGTFTSDYSRYLDE-K(Hexadecanoyl-isoGlu)-RARDFIEWLLSA-NH2 [Compound 8]] | 0.2 | 0.2 |
